According to paper PMC7237784:
Changes are numbered by the printed parent chain.

Experiments:
[1] = biological target: T1, AcFur SI H31A;H88A (Acidithiobacillus caldus MTH-04) (UniProt A0A060A2G1); test: EMSA; conditions: EMSA: 0.4 nM DNA, 0/2/4/8 nM protein, 10 mM Tris-HCl pH 8.0, 100 mM NaCl, 1 mM MnCl2, room temperature, 30 min; 5% native PAGE in 0.5x TBE, EB stain
T1 sequence: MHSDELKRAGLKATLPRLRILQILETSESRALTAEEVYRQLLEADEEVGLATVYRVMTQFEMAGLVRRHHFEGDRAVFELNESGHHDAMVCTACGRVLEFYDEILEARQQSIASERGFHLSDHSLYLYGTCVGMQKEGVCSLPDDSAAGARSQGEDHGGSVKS

[2] = biological target: T2, AcFur SII E106A;H123A (Acidithiobacillus caldus MTH-04) (UniProt A0A060A2G1); test: EMSA; conditions: EMSA: 0.4 nM DNA, 0/2/4/8 nM protein, 10 mM Tris-HCl pH 8.0, 100 mM NaCl, 1 mM MnCl2, room temperature, 30 min; 5% native PAGE in 0.5x TBE, EB stain
T2 sequence: T1 sequence with A31H, A88H, E106A, H123A

Sequence | binding [1] | binding [2]
TTCCACCTGCTCACCTGCGCGGGCCGAGCTCAGGCGGTGGGGGGAAAGGACTTGGGTCATGACGCTCACACTCCCAACGAGTTCGTGGGGACACTATATCATAATGGTAATCATTTGCAATATCAGCCCAAGGGAGGGCCGTCCCGGCGGACGCAGCCGCCGACGCTCAGTCCAGGTCGCCGTGCCTGGGTGTAAAACGC (double strand) [feoABC operator (feoA promoter)] | no binding | binds more weakly
GCGTAGGACGTCCTTGATAACTGCAACTAAGTTGCATATATTCCGCACGACCACTCCGCGCGTCCCTGGGGAGCTTGACCGGTAAGTCTATTTATTGAATGATAATGATTAGCATTTATATTATTTGGAGAGATTGTCCATGCGTCGTATACCCCTCTGTGCGCTGCTGAGCACCATGCTTGCTTCCAGC (double strand) [feoP promoter] | no binding | binds more weakly
